Reference: publication doi:10.1101/2024.02.22.581614 (bioRxiv, 2024)

Target: T1, Extant nitrogenase molybdenum-iron protein alpha chain, NifD (A. vinelandii) (Azotobacter vinelandii, UniProt P07328 1-492)
T1 sequence (looked up): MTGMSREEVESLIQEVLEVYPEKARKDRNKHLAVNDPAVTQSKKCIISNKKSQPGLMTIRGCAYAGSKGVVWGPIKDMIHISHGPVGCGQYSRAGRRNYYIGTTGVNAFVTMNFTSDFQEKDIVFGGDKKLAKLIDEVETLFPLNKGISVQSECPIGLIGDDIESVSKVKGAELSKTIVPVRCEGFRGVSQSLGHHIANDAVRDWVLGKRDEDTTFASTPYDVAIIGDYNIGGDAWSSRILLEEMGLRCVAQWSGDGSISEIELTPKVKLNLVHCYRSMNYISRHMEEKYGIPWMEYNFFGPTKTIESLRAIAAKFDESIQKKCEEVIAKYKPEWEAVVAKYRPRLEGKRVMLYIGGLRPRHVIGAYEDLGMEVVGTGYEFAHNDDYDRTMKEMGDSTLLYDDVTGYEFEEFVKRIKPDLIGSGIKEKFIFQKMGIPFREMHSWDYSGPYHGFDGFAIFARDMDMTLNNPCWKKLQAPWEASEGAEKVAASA
Test: affinity co-purification

B1: Extant nitrogenase molybdenum-iron protein beta chain, NifK (A. vinelandii) (enzyme, Azotobacter vinelandii, UniProt P07329 1-523, looked up)
chain: MSQQVDKIKASYPLFLDQDYKDMLAKKRDGFEEKYPQDKIDEVFQWTTTKEYQELNFQREALTVNPAKACQPLGAVLCALGFEKTMPYVHGSQGCVAYFRSYFNRHFREPVSCVSDSMTEDAAVFGGQQNMKDGLQNCKATYKPDMIAVSTTCMAEVIGDDLNAFINNSKKEGFIPDEFPVPFAHTPSFVGSHVTGWDNMFEGIARYFTLKSMDDKVVGSNKKINIVPGFETYLGNFRVIKRMLSEMGVGYSLLSDPEEVLDTPADGQFRMYAGGTTQEEMKDAPNALNTVLLQPWHLEKTKKFVEGTWKHEVPKLNIPMGLDWTDEFLMKVSEISGQPIPASLTKERGRLVDMMTDSHTWLHGKRFALWGDPDFVMGLVKFLLELGCEPVHILCHNGNKRWKKAVDAILAASPYGKNATVYIGKDLWHLRSLVFTDKPDFMIGNSYGKFIQRDTLHKGKEFEVPLIRIGFPIFDRHHLHRSTTLGYEGAMQILTTLVNSILERLDEETRGMQATDYNHDLVR
stoichiometry N: 0.93 D:K
